{
  "source": "paper PMC7145662",
  "about": "“Crystal structure of the EcoKMcrA N-terminal domain (NEco): recognition of modified cytosine bases without flipping”",
  "molecules": {"B1": {"name": "30 bp C5mCGG fully methylated (dsDNA)", "DNA 1": "AGACCCACGCTCACCGGTTCCAGATTTATC", "DNA 2": "GATAAATCTGGAACCGGTGAGCGTGGGTCT", "modifications": "5mC at inner C of CCGG, both strands"}, "B2": {"name": "30 bp CCGG non-methylated (dsDNA)", "DNA 1": "B1 DNA 1", "DNA 2": "B1 DNA 2"}, "B3": {"name": "30 bp CCGG hemi-methylated (dsDNA)", "DNA 1": "B1 DNA 1", "DNA 2": "B1 DNA 2", "modifications": "5mC at inner C of CCGG, one strand"}, "B4": {"name": "30 bp CTGG/C5mCGG (T:G mismatch) (dsDNA)", "DNA 1": "B1 DNA 1 with C15T", "DNA 2": "B1 DNA 2", "modifications": "5mC in one strand"}, "B5": {"name": "30 bp C5hmCGG fully hydroxymethylated (dsDNA)", "DNA 1": "B1 DNA 1", "DNA 2": "B1 DNA 2", "modifications": "5hmC at inner C of CCGG, both strands"}, "B6": {"name": "30 bp CTGG/C5mCAG (T:A pair) (dsDNA)", "DNA 1": "B1 DNA 1 with C15T", "DNA 2": "B1 DNA 2 with G16A", "modifications": "5mC in one strand"}},
  "key": {"[1]": {"molecular_target": "T1, NEco (EcoKMcrA N-terminal domain) (Escherichia coli K) (UniProt P24200)", "T1 sequence": "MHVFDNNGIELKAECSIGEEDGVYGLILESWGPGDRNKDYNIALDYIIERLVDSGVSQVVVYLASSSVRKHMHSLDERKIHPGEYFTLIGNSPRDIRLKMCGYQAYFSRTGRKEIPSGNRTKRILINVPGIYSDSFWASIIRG", "assay": "competition", "details": "5mC in CpG, both strands; EMSA: 10 nM 33P/32P 30 bp duplex, 5-2000 nM NEco; competition: 10 nM labeled C5mCGG, 10 nM NEco, 3-3000 nM unlabeled competitor; buffer, pH and temperature not …"}, "[2]": {"molecular_target": "T2, NEco W31Y (Escherichia coli K, UniProt P24200 1-143, W31Y)", "T2 sequence": "T1 sequence with W31Y", "assay": "EMSA; EMSA: 10 nM 33P/32P 30 bp duplex, 5-2000 nM NEco; competition: 10 nM labeled C5mCGG, 10 nM NEco, 3-3000 nM unlabeled competitor; buffer, pH and temperature not", "details": "protein: recombinant"}, "[3]": {"molecular_target": "T3, NEco W31F (Escherichia coli K, UniProt P24200 1-143, W31F)", "T3 sequence": "T1 sequence with W31F", "assay": "EMSA; EMSA: 10 nM 33P/32P 30 bp duplex, 5-2000 nM NEco; competition: 10 nM labeled C5mCGG, 10 nM NEco, 3-3000 nM unlabeled competitor; buffer, pH and temperature not", "details": "protein: recombinant"}, "[4]": {"molecular_target": "T4, NEco S30A (Escherichia coli K, UniProt P24200 1-143, S30A)", "T4 sequence": "T1 sequence with S30A", "assay": "EMSA; EMSA: 10 nM 33P/32P 30 bp duplex, 5-2000 nM NEco; competition: 10 nM labeled C5mCGG, 10 nM NEco, 3-3000 nM unlabeled competitor; buffer, pH and temperature not", "details": "protein: recombinant"}, "[5]": {"molecular_target": "T5, NEco W31S (Escherichia coli K, UniProt P24200 1-143, W31S)", "T5 sequence": "T1 sequence with W31S", "assay": "EMSA; EMSA: 10 nM 33P/32P 30 bp duplex, 5-2000 nM NEco; competition: 10 nM labeled C5mCGG, 10 nM NEco, 3-3000 nM unlabeled competitor; buffer, pH and temperature not", "details": "protein: recombinant"}, "[6]": {"molecular_target": "T6, NEco W31A (Escherichia coli K, UniProt P24200 1-143, W31A)", "T6 sequence": "T1 sequence with W31A", "assay": "EMSA; EMSA: 10 nM 33P/32P 30 bp duplex, 5-2000 nM NEco; competition: 10 nM labeled C5mCGG, 10 nM NEco, 3-3000 nM unlabeled competitor; buffer, pH and temperature not", "details": "protein: recombinant"}, "[7]": {"molecular_target": "T7, NEco W31V (Escherichia coli K, UniProt P24200 1-143, W31V)", "T7 sequence": "T1 sequence with W31V", "assay": "EMSA; EMSA: 10 nM 33P/32P 30 bp duplex, 5-2000 nM NEco; competition: 10 nM labeled C5mCGG, 10 nM NEco, 3-3000 nM unlabeled competitor; buffer, pH and temperature not", "details": "protein: recombinant"}, "[8]": {"molecular_target": "T8, NEco W31L (Escherichia coli K, UniProt P24200 1-143, W31L)", "T8 sequence": "T1 sequence with W31L", "assay": "EMSA; EMSA: 10 nM 33P/32P 30 bp duplex, 5-2000 nM NEco; competition: 10 nM labeled C5mCGG, 10 nM NEco, 3-3000 nM unlabeled competitor; buffer, pH and temperature not", "details": "protein: recombinant"}, "[9]": {"molecular_target": "T9, NEco N119A (Escherichia coli K, UniProt P24200 1-143, N119A)", "T9 sequence": "T1 sequence with N119A", "assay": "EMSA; EMSA: 10 nM 33P/32P 30 bp duplex, 5-2000 nM NEco; competition: 10 nM labeled C5mCGG, 10 nM NEco, 3-3000 nM unlabeled competitor; buffer, pH and temperature not", "details": "protein: recombinant"}, "[10]": {"molecular_target": "T10, NEco W31I (Escherichia coli K, UniProt P24200 1-143, W31I)", "T10 sequence": "T1 sequence with W31I", "assay": "EMSA; EMSA: 10 nM 33P/32P 30 bp duplex, 5-2000 nM NEco; competition: 10 nM labeled C5mCGG, 10 nM NEco, 3-3000 nM unlabeled competitor; buffer, pH and temperature not", "details": "protein: recombinant"}, "[11]": {"molecular_target": "T11, NEco S30V (Escherichia coli K, UniProt P24200 1-143, S30V)", "T11 sequence": "T1 sequence with S30V", "assay": "EMSA; EMSA: 10 nM 33P/32P 30 bp duplex, 5-2000 nM NEco; competition: 10 nM labeled C5mCGG, 10 nM NEco, 3-3000 nM unlabeled competitor; buffer, pH and temperature not", "details": "protein: recombinant"}, "[12]": {"molecular_target": "T12, NEco S30L (Escherichia coli K, UniProt P24200 1-143, S30L)", "T12 sequence": "T1 sequence with S30L", "assay": "EMSA; EMSA: 10 nM 33P/32P 30 bp duplex, 5-2000 nM NEco; competition: 10 nM labeled C5mCGG, 10 nM NEco, 3-3000 nM unlabeled competitor; buffer, pH and temperature not", "details": "protein: recombinant"}, "[13]": {"molecular_target": "T13, NEco (EcoKMcrA N-terminal domain) (Escherichia coli K, UniProt P24200 1-143)", "T13 sequence": "T1 sequence", "assay": "competition; EMSA: 10 nM 33P/32P 30 bp duplex, 5-2000 nM NEco; competition: 10 nM labeled C5mCGG, 10 nM NEco, 3-3000 nM unlabeled competitor; buffer, pH and temperature not", "details": "protein: recombinant"}, "[14]": {"molecular_target": "T14, NEco W31H (Escherichia coli K, UniProt P24200 1-143, W31H)", "T14 sequence": "T1 sequence with W31H", "assay": "competition; EMSA: 10 nM 33P/32P 30 bp duplex, 5-2000 nM NEco; competition: 10 nM labeled C5mCGG, 10 nM NEco, 3-3000 nM unlabeled competitor; buffer, pH and temperature not", "details": "protein: recombinant"}, "[15]": {"molecular_target": "T6, NEco W31A", "assay": "EMSA; discrete complexes, unlike wt; EMSA: 10 nM 33P/32P 30 bp duplex, 5-2000 nM NEco; competition: 10 nM labeled C5mCGG, 10 nM NEco, 3-3000 nM unlabeled competitor; buffer, pH and temperature not", "details": "protein: recombinant"}, "[16]": {"molecular_target": "T13, NEco (EcoKMcrA N-terminal domain)", "assay": "competition; EMSA: 10 nM 33P/32P 30 bp duplex, 5-2000 nM NEco; competition: 10 nM labeled C5mCGG, 10 nM NEco, 3-3000 nM unlabeled competitor; buffer, pH and temperature not", "details": "protein: recombinant", "remark": "listed apart in the source"}},
  "note": "Where a chain is given by its changes, count along the chain named.",
  "data": [
    {"molecule": "AGACCCACGCTCAGCGCTTCCAGATTTATC (double strand) [30 bp G5mCGC]", "values": [
      {"measurement": "binding signal (fold lower affinity than G5mCGG/C5mCGC)", "setting": "[1]", "result": "> 25"}
    ]},
    {"molecule": "AGACCCACGCTCAGCGGTTCCAGATTTATC (double strand) [30 bp G5mCGG/C5mCGC]", "values": [
      {"measurement": "binding signal (fold lower affinity than C5mCGG)", "setting": "[1]", "result": 100}
    ]},
    {"molecule": "B1", "values": [
      {"measurement": "binding result", "setting": "[2]", "result": "binds"},
      {"measurement": "binding result", "setting": "[3]", "result": "binds"},
      {"measurement": "binding result", "setting": "[4]", "result": "binds"},
      {"measurement": "binding result", "setting": "[5]", "result": "binds"},
      {"measurement": "binding result", "setting": "[6]", "result": "binds"},
      {"measurement": "binding signal", "setting": "[7]", "result": "> 50", "unit": "fold decreased vs wt NEco"},
      {"measurement": "binding signal", "setting": "[8]", "result": "> 50", "unit": "fold decreased vs wt NEco"},
      {"measurement": "binding signal", "setting": "[9]", "result": "~40", "unit": "fold impaired vs wt NEco"},
      {"measurement": "binding signal", "setting": "[10]", "result": "> 50", "unit": "fold decreased vs wt NEco"},
      {"measurement": "binding signal", "setting": "[11]", "result": "> 50", "unit": "fold decreased vs wt NEco"},
      {"measurement": "binding signal", "setting": "[12]", "result": "> 50", "unit": "fold decreased vs wt NEco"}
    ]},
    {"molecule": "B2", "values": [
      {"measurement": "binding signal", "setting": "[13]", "result": "~10 fold lower affinity than hemi-methylated"}
    ]},
    {"molecule": "B3", "values": [
      {"measurement": "binding signal", "setting": "[14]", "result": "~35 fold lower affinity than fully methylated (same variant)"},
      {"measurement": "binding result", "setting": "[15]", "result": "binds"},
      {"measurement": "binding signal", "setting": "[13]", "result": "~230 fold lower affinity than fully methylated"}
    ]},
    {"molecule": "B4", "values": [
      {"measurement": "binding signal", "setting": "[16]; T:G mismatch", "result": "~500 fold lower affinity than C5mCGG"}
    ]},
    {"molecule": "B5", "values": [
      {"measurement": "binding signal", "setting": "[13]", "result": "~40 fold lower affinity than fully methylated"}
    ]},
    {"molecule": "B6", "values": [
      {"measurement": "binding signal", "setting": "[16]", "result": "> 2000 fold lower affinity than C5mCGG"}
    ]}
  ]
}
